PMC10681739, “High-throughput data and modeling reveal insights into the mechanisms of cooperative DNA-binding by transcription factor proteins”

Target: T1, ETS1 x2 (Homo sapiens, UniProt P14921)
T1 sequence: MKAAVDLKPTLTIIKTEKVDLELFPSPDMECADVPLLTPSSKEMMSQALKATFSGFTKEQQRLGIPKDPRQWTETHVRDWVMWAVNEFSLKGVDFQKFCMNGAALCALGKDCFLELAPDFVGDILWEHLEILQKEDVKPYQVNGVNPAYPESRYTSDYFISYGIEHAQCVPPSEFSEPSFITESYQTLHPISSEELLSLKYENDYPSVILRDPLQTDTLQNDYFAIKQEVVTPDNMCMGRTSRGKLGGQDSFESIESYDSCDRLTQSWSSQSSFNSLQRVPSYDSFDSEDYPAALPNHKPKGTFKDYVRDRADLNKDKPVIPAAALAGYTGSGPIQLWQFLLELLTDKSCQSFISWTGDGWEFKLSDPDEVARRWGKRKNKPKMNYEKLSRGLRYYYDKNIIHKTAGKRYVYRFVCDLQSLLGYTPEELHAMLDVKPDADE
Assay: gcPBM; 10 nM ETS1
Settings: tags: N-terminal GST (pDEST15), kept (PMC6008103); chain copies: 2; label: surface-attached array probe

B1: Table S4 A row 743 (dsDNA)
DNA 1: CCCCACTTCCTGTTGACACAATAGGCAGGATATTAA
DNA 2: TTAATATCCTGCCTATTGTGTCAACAGGAAGTGGGG
Question: Which binding signal does the source give for B1 here?
Answer: Its binding signal is 67800 PBM fluorescence, median of replicate spots.
